± gives the uncertainty stated by the source.
Assay: amyloid nucleation score (Sup35N fusion, yeast selection) (log enrichment); library NNK2; higher = more nucleation; inactive = no reads after selection
In short: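 Output and input plasmid inserts were sequenced by Illumina after psi-negative yeast carrying Sup35N fused to peptides of 20 random codons had been induced 24 hours with 100 μM copper sulfate and grown 7 days at 30°C on medium lacking adenine and uracil. The nucleation score is the DiMSum log enrichment of output over input reads, centred on the mode score of non-aggregating sequences. Sequences with under 100 input reads were excluded.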

| Substance | amyloid nucleation score |
| --- | --- |
| NLGTWD | -0.156 ± 0.28 |
| VRNGFKMRRRMSSPVCETLL | -0.642 ± 1.1 |
| GNIDGLLQFEYRW | 0.552 ± 0.66 |
| DLGPLFDCCSVYGGAECCIE | -0.1 ± 0.49 |
| DNRKDSFMLHSFGTKVSGHK | 0.918 ± 0.37 |
| FPFSGFVDFSVLVLRYKGSP | 1.82 ± 0.16 |
| GVSVSSLSACPKEDFGSFSE | 0.051 ± 0.63 |
| FTLWFQTLARGGMLARNLFK | -1.17 ± 0.75 |
| FDNQFTLVVRGIVGTVYWCV | 7.233 ± 0.065 |
| YVCCR | 0.565 ± 0.46 |
| VLPQDKNMILYYKSLLHLFC | 0.823 ± 0.44 |
| ENLPGWLLVKMVQYY | 0.276 ± 0.54 |
| THVNFW | inactive |
| KDAFT | -0.895 ± 0.49 |
| QYVSLYAVKRIVEIVQDKCA | 0.012 ± 0.39 |
| EAKFGKLKGYKCTVTGECSC | -0.391 ± 0.36 |
| PRIFFYVNLFLRHWPEIKML | -2.08 ± 1.1 |
| CCVVIKN | 6.08 ± 0.079 |
| FGVNS | -0.021 ± 0.63 |
| WGETVLYSDY | -1.01 ± 1 |
| YRMLSIKCGM | -0.707 ± 0.79 |
| QIYGCNWLCLQVRHPV | 8.061 ± 0.079 |
| TICYV | -0.564 ± 0.35 |
| PIITFNTI | -0.637 ± 1.1 |
| ILCYMFVYYAYA | 0.016 ± 1.1 |

| Substance | amyloid nucleation score |
| --- | --- |
| HSCVYYTVYLRLFSMKGSEN | 5.361 ± 0.038 |
| NRWLYFHS | -0.678 ± 0.76 |
| LMNGVGLFNQMGWVVERYLE | -0.357 ± 0.4 |
| NCPCGHVVRVNNNWRCFSVT | 6.933 ± 0.052 |
| WFPALEYKCAQGQDRQQRPV | 0.351 ± 0.74 |
| DMVVMVYALLGPLQFECNK | 0.888 ± 0.15 |
| FYITRLVHFNLIYEGLGFLR | 1.05 ± 0.23 |
| LLNGPVYFFNLWVHGAC | 8.126 ± 0.052 |
| NRKFARWLLLT | -0.492 ± 0.61 |
| DIHRPQRYISKYSSTREWVG | -0.224 ± 0.32 |
| FFDSLGAGRYNRIRRWLSVV | -1.33 ± 0.44 |
| TFPNLHFCFTLLLYKGCVCG | -0.101 ± 1.1 |
| NWLQDK | 1.61 ± 0.55 |
| GDTIVSSGKVSCQRHASFLI | 0.959 ± 0.74 |
| PLSPFTHGLSQYIALEIDGQ | -0.254 ± 0.63 |
| YRWVHLEFGARLAFQSVKNI | 0.241 ± 0.8 |
| YRMCLLRYT | -0.936 ± 0.55 |
| DYVTVVGIILVLLLLNFNLG | inactive |
| YWWCRPILILCSNLDDVWSL | 7.6 ± 0.079 |
| KVSGRYVEEYDHFPTDLSSL | -0.046 ± 0.54 |
| AGSGFRSATWYRASTWMAFG | 2.93 ± 0.13 |
| SLPAENSFIEF | -1.25 ± 0.39 |
| CEDSCSSCNGILLDVREERS | 1.89 ± 0.076 |
| LLRLRECQV | 2.73 ± 0.14 |
| RVTFSLWFADFIQNNLLKK | 0.158 ± 0.5 |

| Substance | amyloid nucleation score |
| --- | --- |
| SLLTCLSGMHGWVSIT | -0.13 ± 0.27 |
| AVSFWSIF | 0.307 ± 0.64 |
| LKQLKISRRADNYVTQCNLV | 2.91 ± 0.11 |
| PSDFYWSMFEQYCHGV | 4.51 ± 0.05 |
| FRVPF | 2.03 ± 0.24 |
| VGKWVRGQTSLLLVAWSAIY | 0.28 ± 0.61 |
| ALILAVLPSKDPIRVCWYSG | 0.04 ± 0.33 |
| LRMYCRVTWSISYVSSSPVL | 2.83 ± 0.087 |
| LFDLWSVEFC | -0.392 ± 0.43 |
| EFFCAHLRADLVLKKNRVVF | -1.05 ± 0.78 |
| SRMAWYFLLGYHLMMEKVHL | inactive |
| ISSSIEHNRCGVEINVICWS | 7.312 ± 0.051 |
| DHAYYDTSCGIRTPFVMIVR | inactive |
| SAMLDRFYGVRFTMFCRAEH | 0.299 ± 0.61 |
| VLVCRFQSIFGILVVASCVK | -1.53 ± 0.55 |
| NNRYELCSSQH | inactive |
| FRFVEFNNSGNVCPLIFTLS | -0.266 ± 0.65 |
| SSLHACA | 2.21 ± 0.29 |
| MKFKYTNHVYRIDCRSAT | 0.551 ± 0.38 |
| PLQPNAIRRSMVSF | 0.894 ± 0.43 |
| AEYPHAFFSDCACYHIPGSA | 0.586 ± 0.57 |
| NIRFTSLFRLCYFSCDSVSN | 5.301 ± 0.035 |
| RNFDMPLLAYGMTWEQLMEF | 4.51 ± 0.058 |
| FYECNMSQVRDFPLHMYRYS | inactive |
| PCLKGVITLLLKGPGPHRVN | 0.091 ± 0.42 |

| Substance | amyloid nucleation score |
| --- | --- |
| LIFFCLFEYRLRLHCNRRDH | -1.34 ± 0.49 |
| HEAYLPRLNDVTTSPSPCPY | 0.487 ± 0.62 |
| EWHVWVCIWGCGIEAWMLSW | 1.84 ± 0.16 |
| HDLKLV | 0.266 ± 0.41 |
| KSFGVDYFFCVKLTSCGIQC | 3.25 ± 0.12 |
| YMLTKYRYS | 0.734 ± 0.81 |
| VWEIEGEPPWVQSVCSWDPR | 3.85 ± 0.057 |
| RCLPSIFDPMRVTRVLPELY | -0.017 ± 1 |
| RGFVLETLWSMTIVVQKFNL | inactive |
| RRETRMGVSSVLDPVAGRWP | 1.58 ± 0.17 |
| CDKFFLDF | -1.9 ± 0.48 |
| LIQVGQSST | 0.046 ± 0.49 |
| CNILH | 1.36 ± 0.3 |
| DQIEIISLKNCTVG | inactive |
| SSYRLDAWVKKLFSLSQRKG | -0.052 ± 0.32 |
| IYCLRAGTKHSSLLGAKEDK | 0.594 ± 0.66 |
| RCIDFDSSCASTNYGSVLWA | 1.09 ± 0.38 |
| YLGRHDYKSVGGSFIPRQSK | -0.661 ± 1.1 |
| DCLLCFFGSHSILVRPILKV | inactive |
| GIYYTT | -0.854 ± 0.28 |
| VVNRYRNTFFCVYWTSAGVL | 6.65 ± 0.073 |
| NTYYFKALT | 0.072 ± 1.1 |
| DNDCHCSWENISYLWGHLRG | inactive |
| TDNVIMVERDRASKVCERKG | 0.433 ± 0.54 |
| RSDRVIGDMTGAECITLGRL | -0.82 ± 0.45 |

| Substance | amyloid nucleation score |
| --- | --- |
| GDSVLLYKWYMLGCWPIGSC | 4.31 ± 0.056 |
| ISESLSRWART | 3.69 ± 0.12 |
| DCSCFYFF | 2.96 ± 0.08 |
| LLLCYS | -0.344 ± 0.27 |
| RMYLVYNFLRLDLSARVVLA | inactive |
| YMSATVRCIYSRLY | 3.05 ± 0.13 |
| WICFYDYWQGFSHNDCREME | -0.97 ± 0.36 |
| GDQIWNYGSLAETVTASTWS | 0.509 ± 0.21 |
| NLILWKTYCAAFCVGFINCT | 5.36 ± 0.069 |
| DTPGHGNACSKIRP | -0.159 ± 0.55 |
| RVCPFSQYHVFVS | -0.155 ± 0.18 |
| DLLRPSGMFFCYGQFYCLKC | -1.05 ± 0.39 |
| VLAKISTTE | 0.705 ± 0.15 |
| LNRVGPLVILPIRHLQSTSL | 0.65 ± 0.23 |
| MYIRYPFATPYWSFLLGKVT | -0.117 ± 0.35 |
| VGPPEIWVEFFAV | -0.813 ± 1.1 |
| FWLSYTDLWNNY | inactive |
| CISVPMIFDFTIWA | 6.64 ± 0.071 |
| TIFGRENYEDVKSASEVGLS | 0.135 ± 0.79 |
| YVNVL | 0.479 ± 0.49 |
| CMISTDLKVTRALSTHKNCI | 0.02 ± 0.56 |
| LLFSG | 1.62 ± 0.32 |
| LSCSILRPVWLYISLIVIID | -1.28 ± 0.48 |
| VCYMGTRCGWNSRARVFWGS | 2.69 ± 0.11 |
| SIKVRMGEARVMNLVNTLGV | inactive |

| Substance | amyloid nucleation score |
| --- | --- |
| LWCSDCISTEIIHNQRFA | -0.152 ± 1 |
| WLVGHKLKYA | 0.113 ± 0.22 |
| LSSVMN | -0.565 ± 0.33 |
| CIIVISFLTITWKCAEPELQ | inactive |
| YVLSRDRSWIHGGVGELGAW | 0.969 ± 0.53 |
| ENIYRRLLVLELLVWSCRGK | 0.569 ± 0.34 |
| SWRWKATAT | -1.09 ± 0.45 |
| GADGCCHNMDCGFLNINWTN | 8.959 ± 0.049 |
| MHVDVV | -0.352 ± 1 |
| INGVPNGYMATLGTTCVKKF | -1.11 ± 0.4 |
| ISLISHVLANLSVIRDHANE | -0.68 ± 0.4 |
| FSYPGWFGFRS | inactive |
| GGWRVSGNTSRSISRPCWRG | 0.483 ± 0.27 |
| LMAHTSFVDFGVKN | -0.266 ± 0.23 |
| IYLYPSYWCCFNRL | 9.605 ± 0.059 |
| SKFDLYAKFMIRINRLFVLW | -1.59 ± 0.41 |
| SPWVNYYPSRVYRNVNACLF | -0.339 ± 0.35 |
| TLRIGDFPWISWSEGVWVGG | 0.244 ± 0.65 |
| NPSFNESFLSGSQKVQILMG | -0.509 ± 1.1 |
| TFINAGFRLHFRFYRFVFSK | -0.717 ± 1 |
| NKTPYIDFVLTR | 0.236 ± 1.1 |
| YRPITRMCSWDRNSLWWSRY | -0.582 ± 0.54 |
| KYCSINCYRTASFQTFHLCW | 6.231 ± 0.036 |
| FHVIGRR | 0.951 ± 0.58 |
| FHLLVVNFDTSLPLRQWKLE | 0.059 ± 0.3 |

| Substance | amyloid nucleation score |
| --- | --- |
| GFPLLHTGILVSNLYMLRAR | -0.536 ± 1.1 |
| CTVTK | 1.45 ± 0.11 |
| IVFYVEVVLMAECLADVKRV | 5.56 ± 0.081 |
| LYDVAQDEPLVSRMGLFDPR | 3.46 ± 0.069 |
| VLLTNQRMVFCMGRFAPRVG | -0.556 ± 0.32 |
| DHITVVAIKKEHLVEIIYVY | -0.904 ± 0.35 |
| LCFNLLNPCGRFGVECGCVL | 4.53 ± 0.069 |
| LMAFCKLQDRNKTPLSSALF | inactive |
| NLGHTCVCFKRIRSYFFSYR | -0.94 ± 0.49 |
| SMSSTSFSQWSMAWLEGRMA | 2.93 ± 0.078 |
| LMCVLTIL | 1.25 ± 0.32 |
| GRRVPGWNQSYL | -0.274 ± 0.76 |
| LSNLWSSSF | inactive |
| LRSCKALGGGVTRPTGYS | 0.709 ± 0.47 |
| RLEEDGSD | 7.125 ± 0.067 |
| FLVLFASVPKEVPLAYRVVK | -0.898 ± 0.61 |
| GLLEAWEDFLGRMHGVGLVC | 4.15 ± 0.051 |
| LIQSFSVLAMHDRLGCWRLR | 2.74 ± 0.12 |
| VSCDNASSVLFFVRTTIWCT | 0.751 ± 0.74 |
| MEQELMFREWLW | -0.284 ± 0.48 |
| TNVLYMLWTFKVDERY | 5.964 ± 0.049 |
| YWVFI | -0.115 ± 0.56 |
| TDYYAMWFHSIGRFSG | -1.33 ± 0.38 |
| MFNYINYYSYHFEFSKCFVR | 2.26 ± 0.14 |

— the supplement of paper PMC12042874
